Laboratory results published in patent publication US20160333095A1 (published 2016).

How the values were obtained:
cynomolgus CD3 [1] = target: T1, cynomolgus CD3 (UniProt Q95LI5 22-198); test: FACS binding, HSC-F cells
T1 chain: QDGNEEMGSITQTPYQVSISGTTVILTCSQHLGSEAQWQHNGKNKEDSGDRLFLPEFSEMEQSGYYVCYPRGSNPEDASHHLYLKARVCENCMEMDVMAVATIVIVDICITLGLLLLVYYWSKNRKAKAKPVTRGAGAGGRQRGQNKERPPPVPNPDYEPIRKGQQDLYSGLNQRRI

human CD3 [2] = target: T2, human CD3 (UniProt P07766 22-207); test: FACS binding, Jurkat cells
T2 sequence (P07766 22-207): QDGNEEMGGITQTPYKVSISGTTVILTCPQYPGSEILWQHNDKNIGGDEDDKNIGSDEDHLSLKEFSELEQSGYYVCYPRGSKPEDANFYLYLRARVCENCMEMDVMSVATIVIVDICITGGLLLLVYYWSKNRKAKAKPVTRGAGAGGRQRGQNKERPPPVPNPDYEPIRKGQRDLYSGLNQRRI

cynomolgus CD3 [3] = target: T1, cynomolgus CD3; test: FACS binding, HSC-F cells
human CD3 [4] = target: T2, human CD3; test: FACS binding, Jurkat cells; remark: listed apart in the source
cynomolgus CD3 [5] = target: T1, cynomolgus CD3; test: FACS binding, HSC-F cells; Fig 2A
human CD3 [6] = target: T2, human CD3; test: FACS binding, Jurkat cells; Fig 1A
human CD3 [7] = target: T2, human CD3; test: FACS binding, Jurkat cells; Fig 1B
cynomolgus CD3 [8] = target: T1, cynomolgus CD3; test: FACS binding, HSC-F cells; Fig 2B

B1: bsIgG1-huCD3-H3L3×HER2-LFLEDA (bispecific antibody, V domains shown)
VH 1: EVKLVESGGGLVKPGRSLRLSCAASGFTFNTYAMNWVRQAPGKGLEWVARIRSKYNNYATYYADSVKDRFTISRDDSKSILYLQMNSLKTEDTAMYYCVRHGNFGNSYVSWFAYWGQGTLVTVSS
VL 1: QAVVTQEPSFSVSPGGTVTLTCRSSTGAVTTSNYANWVQQTPGQAFRGLIGGTNKRAPGVPARFSGSILGNKAALTITGAQADDESDYYCALWYSNLWVFGGGTKLTVL
VH 2: QVQLVQSGAEVKKPGASVKVSCKASGYTFTNYGISWVRQAPGQGLEWMGWLSAYSGNTIYAQKLQGRVTMTTDTSTTTAYMELRSLRSDDTAVYYCARDRIVVRPDYFDYWGQGTLVTVSS
VL 2: EIVLTQSPATLSLSPGERATLSCRASQSVSSYLAWYQQKPGQAPRLLIYDASNRATGIPARFSGSGSGTDFTLTISSLEPEDFAVYYCQQRSNWPRTFGQGTKVEIK
EC50 (cynomolgus CD3 [1]): 0.26 µg/mL
EC50 (human CD3 [2]): 0.74 µg/mL

B2: IgG1-huCD3-H4L1-LFLEDA (antibody, V domains shown)
VH: EVKLVESGGGLVKPGRSLRLSCAASGFTFNTYAMNWVRQAPGKGLEWVARIRSKYNNYATYYADSVKDRFTISRDDSKSILYLQMNSLKTEDTAMYYCVRHGNFGNSYVSWFAYWGQGTMVTVSS
VL: not shown
EC50 (cynomolgus CD3 [3]): 0.03 µg/mL
EC50 (human CD3 [4]): 0.06 µg/mL

B3: IgG1-huCD3-H1L1 (antibody, V domains shown)
VH: EVKLVESGGGLVQPGGSLRLSCAASGFTFNTYAMNWVRQAPGKGLEWVARIRSKYNNYATYYADSVKDRFTISRDDSKSSLYLQMNNLKTEDTAMYYCVRHGNFGNSYVSWFAYWGQGTLVTVSS
VL: not shown
EC50 (cynomolgus CD3 [5]): 0.37 µg/mL

B4: IgG1-huCD3-H3L1-LFLEDA (antibody, V domains shown)
VH: EVKLVESGGGLVKPGRSLRLSCAASGFTFNTYAMNWVRQAPGKGLEWVARIRSKYNNYATYYADSVKDRFTISRDDSKSILYLQMNSLKTEDTAMYYCVRHGNFGNSYVSWFAYWGQGTLVTVSS
VL: not shown
EC50 (cynomolgus CD3 [3]): 0.04 µg/mL
EC50 (human CD3 [6]): 0.04 µg/mL
EC50 (human CD3 [7]): 0.04 µg/mL
EC50 (human CD3 [4]): 0.1 µg/mL
EC50 (cynomolgus CD3 [5]): 0.19 µg/mL
EC50 (cynomolgus CD3 [8]): 0.3 µg/mL

B5: bsIgG1-huCD3-H1L3×HER2-LFLEDA (bispecific antibody, V domains shown)
VH 1: EVKLVESGGGLVQPGGSLRLSCAASGFTFNTYAMNWVRQAPGKGLEWVARIRSKYNNYATYYADSVKDRFTISRDDSKSSLYLQMNNLKTEDTAMYYCVRHGNFGNSYVSWFAYWGQGTLVTVSS
VL 1: QAVVTQEPSFSVSPGGTVTLTCRSSTGAVTTSNYANWVQQTPGQAFRGLIGGTNKRAPGVPARFSGSILGNKAALTITGAQADDESDYYCALWYSNLWVFGGGTKLTVL
VH 2: QVQLVQSGAEVKKPGASVKVSCKASGYTFTNYGISWVRQAPGQGLEWMGWLSAYSGNTIYAQKLQGRVTMTTDTSTTTAYMELRSLRSDDTAVYYCARDRIVVRPDYFDYWGQGTLVTVSS
VL 2: EIVLTQSPATLSLSPGERATLSCRASQSVSSYLAWYQQKPGQAPRLLIYDASNRATGIPARFSGSGSGTDFTLTISSLEPEDFAVYYCQQRSNWPRTFGQGTKVEIK
EC50 (cynomolgus CD3 [1]): 0.25 µg/mL
EC50 (human CD3 [2]): 0.58 µg/mL

B6: bsIgG1-huCD3-H4L1×HER2-LFLEDA (bispecific antibody, V domains shown)
VH 1: EVKLVESGGGLVKPGRSLRLSCAASGFTFNTYAMNWVRQAPGKGLEWVARIRSKYNNYATYYADSVKDRFTISRDDSKSILYLQMNSLKTEDTAMYYCVRHGNFGNSYVSWFAYWGQGTMVTVSS
VL 1: not shown
VH 2: QVQLVQSGAEVKKPGASVKVSCKASGYTFTNYGISWVRQAPGQGLEWMGWLSAYSGNTIYAQKLQGRVTMTTDTSTTTAYMELRSLRSDDTAVYYCARDRIVVRPDYFDYWGQGTLVTVSS
VL 2: EIVLTQSPATLSLSPGERATLSCRASQSVSSYLAWYQQKPGQAPRLLIYDASNRATGIPARFSGSGSGTDFTLTISSLEPEDFAVYYCQQRSNWPRTFGQGTKVEIK
EC50 (cynomolgus CD3 [1]): 0.36 µg/mL
EC50 (human CD3 [2]): 0.62 µg/mL

B7: IgG1-huCD3-H1L3 (antibody, V domains shown)
VH: EVKLVESGGGLVQPGGSLRLSCAASGFTFNTYAMNWVRQAPGKGLEWVARIRSKYNNYATYYADSVKDRFTISRDDSKSSLYLQMNNLKTEDTAMYYCVRHGNFGNSYVSWFAYWGQGTLVTVSS
VL: QAVVTQEPSFSVSPGGTVTLTCRSSTGAVTTSNYANWVQQTPGQAFRGLIGGTNKRAPGVPARFSGSILGNKAALTITGAQADDESDYYCALWYSNLWVFGGGTKLTVL
EC50 (human CD3 [6]): 0.06 µg/mL
EC50 (cynomolgus CD3 [5]): 0.28 µg/mL

B8: IgG1-huCD3-H4L3-LFLEDA (antibody, V domains shown)
VH: EVKLVESGGGLVKPGRSLRLSCAASGFTFNTYAMNWVRQAPGKGLEWVARIRSKYNNYATYYADSVKDRFTISRDDSKSILYLQMNSLKTEDTAMYYCVRHGNFGNSYVSWFAYWGQGTMVTVSS
VL: QAVVTQEPSFSVSPGGTVTLTCRSSTGAVTTSNYANWVQQTPGQAFRGLIGGTNKRAPGVPARFSGSILGNKAALTITGAQADDESDYYCALWYSNLWVFGGGTKLTVL
EC50 (cynomolgus CD3 [3]): 0.02 µg/mL
EC50 (human CD3 [4]): 0.08 µg/mL

B9: IgG1-huCD3-H1L3-LFLEDA (antibody, V domains shown)
VH: EVKLVESGGGLVQPGGSLRLSCAASGFTFNTYAMNWVRQAPGKGLEWVARIRSKYNNYATYYADSVKDRFTISRDDSKSSLYLQMNNLKTEDTAMYYCVRHGNFGNSYVSWFAYWGQGTLVTVSS
VL: QAVVTQEPSFSVSPGGTVTLTCRSSTGAVTTSNYANWVQQTPGQAFRGLIGGTNKRAPGVPARFSGSILGNKAALTITGAQADDESDYYCALWYSNLWVFGGGTKLTVL
EC50 (cynomolgus CD3 [3]): 0.03 µg/mL
EC50 (human CD3 [4]): 0.11 µg/mL

B10: bsIgG1 CD3×HER2 (bispecific antibody, V domains shown)
VH 1: EVKLLESGGGLVQPKGSLKLSCAASGFTFNTYAMNWVRQAPGKGLEWVARIRSKYNNYATYYADSVKDRFTISRDDSQSILYLQMNNLKTEDTAMYYCVRHGNFGNSYVSWFAYWGQGTLVTVSA
VL 1: QAVVTQESALTTSPGETVTLTCRSSTGAVTTSNYANWVQEKPDHLFTGLIGGTNKRAPGVPARFSGSLIGDKAALTITGAQTEDEAIYFCALWYSNLWVFGGGTKLTVL
VH 2: QVQLVQSGAEVKKPGASVKVSCKASGYTFTNYGISWVRQAPGQGLEWMGWLSAYSGNTIYAQKLQGRVTMTTDTSTTTAYMELRSLRSDDTAVYYCARDRIVVRPDYFDYWGQGTLVTVSS
VL 2: EIVLTQSPATLSLSPGERATLSCRASQSVSSYLAWYQQKPGQAPRLLIYDASNRATGIPARFSGSGSGTDFTLTISSLEPEDFAVYYCQQRSNWPRTFGQGTKVEIK
EC50 (human CD3 [7]): 0.68 µg/mL

B11: IgG1-huCD3-H1L2 (antibody, V domains shown)
VH: EVKLVESGGGLVQPGGSLRLSCAASGFTFNTYAMNWVRQAPGKGLEWVARIRSKYNNYATYYADSVKDRFTISRDDSKSSLYLQMNNLKTEDTAMYYCVRHGNFGNSYVSWFAYWGQGTLVTVSS
VL: QAVVTQEPSFSVSPGGTVTLTCRSSTGAVTTSNYANWVQQTPGQAFRGLIGGTNKRAPGVPARFSGSILGNKAALTITGAQADDESIYFCALWYSNLWVFGGGTKLTVL
EC50 (human CD3 [6]): 0.08 µg/mL
EC50 (cynomolgus CD3 [5]): 0.31 µg/mL

B12: IgG1-huCD3-H3L3 (antibody, V domains shown)
VH: EVKLVESGGGLVKPGRSLRLSCAASGFTFNTYAMNWVRQAPGKGLEWVARIRSKYNNYATYYADSVKDRFTISRDDSKSILYLQMNSLKTEDTAMYYCVRHGNFGNSYVSWFAYWGQGTLVTVSS
VL: QAVVTQEPSFSVSPGGTVTLTCRSSTGAVTTSNYANWVQQTPGQAFRGLIGGTNKRAPGVPARFSGSILGNKAALTITGAQADDESDYYCALWYSNLWVFGGGTKLTVL
EC50 (human CD3 [6]): 0.02 µg/mL
EC50 (cynomolgus CD3 [5]): 0.11 µg/mL

B13: IgG1-huCD3-H1L1-LFLEDA (antibody, V domains shown)
VH: EVKLVESGGGLVQPGGSLRLSCAASGFTFNTYAMNWVRQAPGKGLEWVARIRSKYNNYATYYADSVKDRFTISRDDSKSSLYLQMNNLKTEDTAMYYCVRHGNFGNSYVSWFAYWGQGTLVTVSS
VL: not shown
EC50 (cynomolgus CD3 [3]): 0.03 µg/mL

B14: bsIgG1-huCD3-H1L1×HER2-LFLEDA (bispecific antibody, V domains shown)
VH 1: EVKLVESGGGLVQPGGSLRLSCAASGFTFNTYAMNWVRQAPGKGLEWVARIRSKYNNYATYYADSVKDRFTISRDDSKSSLYLQMNNLKTEDTAMYYCVRHGNFGNSYVSWFAYWGQGTLVTVSS
VL 1: not shown
VH 2: QVQLVQSGAEVKKPGASVKVSCKASGYTFTNYGISWVRQAPGQGLEWMGWLSAYSGNTIYAQKLQGRVTMTTDTSTTTAYMELRSLRSDDTAVYYCARDRIVVRPDYFDYWGQGTLVTVSS
VL 2: EIVLTQSPATLSLSPGERATLSCRASQSVSSYLAWYQQKPGQAPRLLIYDASNRATGIPARFSGSGSGTDFTLTISSLEPEDFAVYYCQQRSNWPRTFGQGTKVEIK
EC50 (cynomolgus CD3 [1]): 0.32 µg/mL

B15: IgG1-huCD3-H4L1 (antibody, V domains shown)
VH: EVKLVESGGGLVKPGRSLRLSCAASGFTFNTYAMNWVRQAPGKGLEWVARIRSKYNNYATYYADSVKDRFTISRDDSKSILYLQMNSLKTEDTAMYYCVRHGNFGNSYVSWFAYWGQGTMVTVSS
VL: not shown
EC50 (human CD3 [6]): 0.05 µg/mL
EC50 (cynomolgus CD3 [5]): 0.26 µg/mL

B16: IgG1-huCD3-H3L3-LFLEDA (antibody, V domains shown)
VH: EVKLVESGGGLVKPGRSLRLSCAASGFTFNTYAMNWVRQAPGKGLEWVARIRSKYNNYATYYADSVKDRFTISRDDSKSILYLQMNSLKTEDTAMYYCVRHGNFGNSYVSWFAYWGQGTLVTVSS
VL: QAVVTQEPSFSVSPGGTVTLTCRSSTGAVTTSNYANWVQQTPGQAFRGLIGGTNKRAPGVPARFSGSILGNKAALTITGAQADDESDYYCALWYSNLWVFGGGTKLTVL
EC50 (cynomolgus CD3 [3]): 0.03 µg/mL
EC50 (human CD3 [4]): 0.08 µg/mL
